According to FireProtDB (doi:10.1021/bi982828s):
Values joined by “and” are separate entries in the source; they are usually repeats but may differ in a detail not shown here. Equal values may be shown once.

Conditions: Arachis hypogaea, Thermal, DSC, Sodium phosphate 0.05 M, NaCl 0.15 M, transition: 3, reversible: yes, whole UniProt chain shown

B1: Galactose-binding lectin wild type, P02872 (protein)
chain: MKPFCVFLTFFLLLAASSKKVDSAETVSFNFNSFSEGNPAINFQGDVTVLSNGNIQLTNLNKVNSVGRVLYAMPVRIWSSATGNVASFLTSFSFEMKDIKDYDPADGIIFFIAPEDTQIPAGSIGGGTLGVSDTKGAGHFVGVEFDTYSNSEYNDPPTDHVGIDVNSVDSVKTVPWNSVSGAVVKVTVIYDSSTKTLSVAVTNDNGDITTIAQVVDLKAKLPERVKFGFSASGSLGGRQIHLIRSWSFTSTLITTTRRSIDNNEKKIMNMASA
Tm (pH 5.5): 56.9 °C and 61.2 °C
unfolding enthalpy (calorimetric) (pH 5.5): 212 kcal/mol and 113 kcal/mol
Tm (pH 6): 57.5 °C
unfolding enthalpy (calorimetric) (pH 6): 218 kcal/mol
Tm (pH 6.5): 58 °C and 62.5 °C
unfolding enthalpy (calorimetric) (pH 6.5): 225 kcal/mol and 121 kcal/mol
Tm (pH 7): 58.5 °C
unfolding enthalpy (calorimetric) (pH 7): 231 kcal/mol
unfolding enthalpy (van 't Hoff) (pH 7.4): 75.1 kcal/mol and 149 kcal/mol
Tm (pH 7.8): 60.1 °C and 64.4 °C
unfolding enthalpy (calorimetric) (pH 7.8): 245 kcal/mol and 132 kcal/mol
Tm (pH 8.2): 61.2 °C and 65 °C
unfolding enthalpy (calorimetric) (pH 8.2): 251 kcal/mol and 135 kcal/mol
